Assay results reported in the DeepSol protein solubility set.

Test: soluble on expression in E. coli; label from the status in PepcDB or PDB records

Sequence | soluble on expression in E. coli
MFTQRKKWLSGVAAGLLMAASVSASAEEKILHIYNWSDYIAPDTLANFQKETGIKVVYDVFDSNEVLEGKLMAGSTGFDLVVPSASFLERQLSAGVFKPLDKSKLPNEKNLDPELLALVSKHDPDNKYAIPYLWATTGIGYNVEKVKAVLGEDAPVNSWDLVLKPENLEKLKSCGVSFLDAPSEIFATVLNYLGKDPNSTLTADYTGSATDLLLKLRPNIRYFHSSQYINDLANGDICVAVGWAGDIMQASNRAKEAKNGVNVAYSIPKEGALAFFDVFAMPTDAKNQDEAYQFLNYLMRPDVIANISNHVFYANANQAATPLVNAEVRDNPGIYPPADVRAKMFTLKVQDPKIDRVITRAWTKVKSGK | not soluble
GHMDQSDFSPYIEIDLPSESRIQSLHKSGLAAQEWVACEKVHGTNFGIYLINQGDHEVVRFAKRSGIMDPNENFFGYHILIDEFTAQIRILNDLLKQKYGLSRVGRLVLNGELFGAKYKHPLVPKSEKWCTLPNGKKFPIAGVQIQREPFPQYSPELHFFAFDIKYSVSGAEEDFVLLGYDEFVEFSSKVPNLLYARALVRGTLDECLAFDVENFMTPLPALLGLGNYPLEGNLAEGVVIRHVRRGDPAVEKHNVSTIIKLRCSSFMELKHPGKQKE | soluble
MNIAKIVREAREQSRLTTLDFATGIFDEFIQLHGDRSFRDDGAVVGGIGWLGDQAVTVVGIQKGKSLQDNLKRNFGQPHPEGYRKALRLMKQAEKFGRPVVTFINTAGAYPGVGAEERGQGEAIARNLMEMSDLKVPIIAIIIGEGGSGGALALAVADRVWMLENSIYAILSPEGFASILWKDGTRAMEAAELMKITSHELLEMDVVDKVISEIGLSSKELIKSVKKELQTELARLSQKPLEELLEERYQRFRKY | not soluble
MGSDKIHHHHHHMSRAIPAMPLAPASAALDLSKVKTLVCEPSLPIRQGIRLALNNVGIRDITEATTFLAAHQACKEGDHDFLLLNQEIETNDTAFMVRELRSGALGRDPFILTVMLLSSREEPKVRSAIDCGPDDLLLIPFAPDQLMNRLKAQIERRKPFVVTHDYIGPDRRAAPRPGATSATQFQVPNPVRARGTNVPRDRYDRMKQESIVTISVERIKRLAATMDWECNALTVSAREGRMTPESTYRSLLKLEQVTAELSLRVTKQLGHSTETIDSLTQYLPPVEDGSEQCKLFRC | not soluble
MTNLVDKAAHSFATQNVVFQTLATASGKLVGVVTLNVEKALNALDLDMVRAMTVQLNLWKKDPLIACVVLDGSGEKAFCAGGDVRALYHASVAAKGQVTEVAKVFFEEEYRLDYLLHTYGKPVLVWGDGIVMGGGLGLMAGASHKVVTETSRIAMPEVTIGLYPDVGGSYFLNRMPGKMGLFLGLTAYHMNAADACYVGLADHYLNRDDKELMFDAMATLDWSDSPALNHQRLDTMINELSNQVDIPKGDSVLAESQEMIDRLMAGSLTDIVTRMSTLSTDEAWLSKACATMLAGSPISWHLAYIQTQLGTKLSLAQCFKWELTVSVNVCAKGDFCEGVRALLIDKDKQPKWQFADVQSVPNSVIEDILTSPWGEEHPLSQLS | soluble
MLGGKGRPSGVGGYRILVTTSRRPSPRIRSFVKDLSATIPGAFRFTRGHYSMEELAREAIIRGADRIVVVGERRGNPGIIRVYAVEGPERPDNIVSFIVKGVSLSRERRWGLPSLRGGEVLVARPLDSGVAVEFADAFVIAFHARLKPPEAAGYVEAVIESLDARTVAVTFRYGGAPVGPMLRLGKPAEMVKRGRRVAAALEHHHHHH | not soluble
AHHHHHHGSEFFEVLKKRRSIRRFQDKPVPRELIEKLLEAAFLSPSSYNKRPCHFIVVDDREKLEALSKSKLGASGLKTAPVAIVVTADESKSDVWIEDASIAAEHIHLASYALGLASFWVQIRNRMHNETKTAEEYVRELLNIPENYRVLCIIGVGYPAEDKPPHGNEVFEWEKVSYNEFGKRFK | soluble
MSLTWVSVEAKIDYELDPTVLFHLTEENAGDRFYYKKNDNKTSFFGYHAITRFKNDFENKQSIFREWQKYKSDIELIHPSSDKHHLKICGGFQFSMHKSGDEWREFGINHFILPEVLITMENGVSYITYTVKAEQFEIEQFKALIAHLTQNTIDSEFEIGNIKRIEDIYKDEWRDLVKDTIDVLDEHKKIVLARKRLVMFDKNINIPYILQKASQGEHNSYLFVLESQDSIFFSQTPEQLMEVNNGILSTKAVAGTIKRTHQDEVDKENIQAFLNDDKNLNEHRFVVESILNDIAPYVRDITFNETPQILTNDHLYHLYTKIKGQLENDSYIGLLDNLHPTPALGGYPKAEAIEYIEQNEFGTRGLYGAPVGYIDMNDDCEFIVAIRSMLIKKNQATLFAGCGIVKNSDADSEVEETAVKFNPMMKALGVEEYEGHHHHHH | not soluble
MIIGSRRARSDKYVKIAHLMQCTQPWFNHFLPEPESPQASTYKMLKPVSWLPRPVKSVSFYPSRRTAVARNGHNLRLQWRGPLPELHWHSRSLQHTQH | not soluble
MSSTKSIPADVIAKLQKFDELITKLEDAVEEVDVGVEKHFERSAHEMALVDTMSMFLMDSLMWAVQATKGGGADKNDDLLIDLARTKRMTADMKEINLRQDAPRINKQAAANFVRNALWEQPEQGESSKKAAK | not soluble
MSVGQTLAEKILSHKVGRPVRAGELVVVEVDQVMVVDSIAGSFFKRLEYLEATPRYPERVSIVIDHVAPAANLEVAKAQKEIREWGKRHGIRVFDVGRGVCHQVLIEEGLAQPGWVVVGSDSHSTTYGAVGAFGTGMGATDIALAAASGRTWLRVPESVKVVFRGRLPKGVTAKDAALEMVRLLTAEGATYMAVEIHLLDGAEALTRGERMTLANLTVEAGAKAGLVVPSGEILEMYRVPDWLYPDPDARYAKEVEIDLSALTPRVSVPFYVDNVHEVAQVKGKRVDQVFIGTCTNGRIEDLRAAAEVLKGRKVAPWVRLLVVPASSQVLEEAARDGTLLTLLEAGATIGTPGCGPCMGRHMGVLAPGEVCVSTSNRNFRGRMGAPDAEIYLASPRVAAASAVAGYLTTPEELEEEEVHA | soluble
GSHMKISEFLHLALPEEQWLPTISGVLRQFAEEECYVYERPPCWYLGKGCQARLHINADGTQATFIDDAGEQKWAVDSIADCARRFMAHPQVKGRRVYGQVGFNFAAHARGIAFNAGEWPLLTLTVPREELIFEKGNVTVYADSADGCRRLCEWVKEASTTTQNAPLAVDTALNGEAYKQQVARAVAEIRRGEYVKVIVSRAIPLPSRIDMPATLLYGRQANTPVRSFMFRQEGREALGFSPELVMSVTGNKVVTEPLAGTRDRMGNPEHNKAKEAELLHDSKEVLEHILSVKEAIAELEAVCLPGSVVVEDLMSVRQRGSVQHLGSGVSGQLAENKDAWDAFTVLFPSITASGIPKNAALNAIMQIEKTPRELYSGAILLLDDTRFDAALVLRSVFQDSQRCWIQAGAGIIAQSTPERELTETREKLASIAPYLMV | soluble
MQRHPTPNARNSLWRWTDAKHPLRVALNYVVIVLARISPSLHAKNWLLARIGVTVGDGVAWGLESTPDVFWPELVTVGDDAIIGYDATLLCHEFLHDEYRTGAVVVEDRAMIGAGAVVLPGVTIGADAQVAANSLVTADVPPGETVAGVPLEHHHHHH | not soluble
MGSDKIHHHHHHMNSEASENRPAHSATGTLWSWHGGNGALIWQLMFSSDAVMGIKRFPQERKAAFFCLESSTGRVLRDDFVLTAGDENETPVGDGWMIGLETVHGSRLVCHTYQPGSPEHLGIWAINLPEARVVWSRPDLTFTANLGDAFLAYRSIVFAGFPERDYVLIDPLSGCELEHLGTAHERPNQLRDAAQSEEERQRILLPDTVFDEAGHVENINHGATSVTVFHRMEPVAEGVPGWVSTLSVSECERLVHEDVMASGEPMPVFNSFLIKDDRLYYIREREFLVSFVVS | not soluble
MPYLNADRGKSGGYHIGHTLLWSSGKSRLEAIRYHVETSALEKIMFARLLSSERDEYSSEETEHRFDEGLQIYGYSPEDVSKARNKMAGFLAGWRHAVSVRRASMEQSADTEQ | soluble
MSEVPHFVLYEHAAGYALMKIKEFDDAGLILQEVDAAHADGYKFSQIVELASFDPFKNTEAALENCNSISEGLAHPDLTNFLQKSLPKKKKHVVLGINDSKLAGSLTEAFPDLKLVFGGVITEILRGTRVHFERLAKNLPHHSLSKAQLSLGHSYSRSKVKFDVHRVDNMVIQSIALLDQLDKDINLFGMRIREWYSYHYPELFRLAPDQYKYSRLAVAILDRNKMAENENLENEILEILDNDSEKTAQIIEAARTSMGMDISDLDLENIKRFAARVSSLMEYRQQLHEYIKDRMDHCAPSLSALIGEQVGARLISHAGSLTNLAKYPASTVQILGAEKALFRALKTRSNTPKYGLLFHSSFIGKAGTKNKGRVSRYLANKCSIAARVDCFSETPVSTYGEFLRQQVEDRLEYFTSGTVPKKNIDVMKEAEEAAVEVKEKVIKKKKKAAKKAKRLAEESVTATAEAEVDEDAPKPKKKKKSKAGDE | not soluble
MFTDSTAKTVAPYTWKTDAGARATSTSDCIVLVLNGNNPIVADVQSCNADTTLPALGVMCGKRAWVY | soluble
MRIEDKLYLNRYRTDEENPHLKIKDESICAEKCSDRPCVSCCPADVYEWTESGMEVKFEGCLECGTCRIVCPFGNIEWNYPRGNYGVLYKFG | soluble
SNAVTATQLAAKATTLYYLHKQAMTDEVSLLLEQALQLEPYNEAALSLIANDHFISFRFQEAIDTWVLLLDSNDPNLDRVTIIESINKAKKLM | soluble
MGSDKIHHHHHHMNAETPQNLMVASLQAPPVRTVVADPQSVHAAIESRFCCREFLADPVERETMERILRVASWAPSGSNNQPWKVYVVQGASRAALSQKVRAAQDALSQDPTLADNYREPYQYYPVEWVSPYIERRRACGFGLYGVLNIARGDRVRMNEQLLRNFDFFGAPVGIFFTNDEILAEGALVDTAMFVQNVMLAARAEGLHTCVQAAWNRFSSVVLPHIGAQGERLVCALALGHADVDAPVNTFRPDRADPASFTAWLD | not soluble
MSLYTASQLLDKINSHISDIRFTRTPAGLYDPIKYVLSMGGKRIRPVLMLMAYNLYKEDVSSIYDPATAIEVYHNYTLLHDDLMDRADMRRGKTTVHKVWNDNTAILSGDAMLVLAYQYMAASSSEHLKEVMDLFSLTALEICEGQQMDMNFESREDVKEEEYLEMIRLKTAVLLAASLKIGAILGGASPEDAENLYDFGMQIGVAFQLQDDLLDVYGDPAVFGKNIGGDILCNKKTYMLIKALERADRDQLEGLNHWLSATSFCPEEKISAVTELYTQIGIKAVCENKMREYYTRAMTSLGAVSVIEDKKSELKKLMKHLMYREGHHHHHH | soluble
GSSGSSGMSSMTQNLREVMKVMFKVPGFDRVLEKVTLVSAAPEKLICEMKVEEQHTNKLGTLHGGLTATLVDSISTMALMCTERGAPGVSVDMNITYMSPAKIGEEIVITAHILKQGKTLAFASVDLTNKTTGKLIAQGRHTKHLGNSGPSSG | soluble
MKKNFFSDLPEETIVNTLSFLKANTLARIAQTCQFFNRLANDKHLELHQLRQQHIKRELWGNLMVAARSNNLEEVKKILKKGIDPTQTNSYHLNRTPLLAAIEGKAYQTANYLWRKYTFDPNFKDNYGDSPISLLKKQLANPAFKDKEKKQIRALIRGMQEEKIAQSKCLVC | not soluble
